Key:
[1] = target: PorK with a C-terminal twin strep tag (PorK-Strep), subunit of the purified PorKN ring (Porphyromonas gingivalis); experiment: cryo-EM structure; PorKN rings purified from P. gingivalis through the twin strep tag on PorK (Strep-Tactin, 0.5% Triton X-100); single and double rings; whole rings at 7.4 Å (single) and 5.6 Å (double) with 33-fold symmetry; focused refinement of a segment in C1 to 3.2 Å
[2] = target: PorN, subunit of the purified PorKN ring (Porphyromonas gingivalis (endogenous in P. gingivalis)); experiment: as above

Substance	stoichiometry N [1]	stoichiometry N [2]
PorK with a C-terminal twin strep tag (PorK-Strep), subunit of the purified PorKN ring (natural protein)	33	
PorN, subunit of the purified PorKN ring (natural protein)		33

Reference: article PMC12421860
